According to patent US20220275027A1 (TRUSTEES OF PRINCETON UNIVERSITY, published 2022):
Where no end group is shown, it is not given here.

B1: FLAG-Cat^C (cleaved from SUMO-Flag-Cat^C) (other)
chain: DYKDDDDKMFKLNTKNIKVLTPSGFKSFSGIQKVYKPFYHHIIFDDGSEIKCSDNHSFGKDKIKASTIKVGDYLQGKKVLYNEIVEEGIYLYDLLNVGEDNLYYTNGIVSHACESRGK
notes: also called 15N,13C FLAG-Cat^C
B3: Cat^N (EFE-Cat^N, cleaved from SUMO-Cat^N) (peptide)
peptide: EFEALSGDTMIEILDDDGIIQKISMEDLYQRLA
modifications: also: 15N,13C isotope-labelled form used in NMR
notes: the range 120-152 (EFEALSG...QRLA) is counted by me from that statement; Isotope-labelled (15N, 13C) in NMR; also called 15N,13C Cat^N

Columns and labels:
[1] = molecular target: B3; experiment: circular dichroism and analytical size exclusion chromatography of Cat^N, Cat^C and the complex
[2] = molecular target: T1, Fl-Cat^N (fluorescein labeled Cat^N peptide) (N-terminus capped with 5(6)-carboxyfluorescein); experiment: one site binding fit of steady-state fluorescence anisotropy, 500 pM Fl-Cat^N, 100 mM NaCl (fit value below the probe concentration)
T1 construct: Made by Fmoc solid phase synthesis; also called FI-Cat^N; Cat^N containing an N-terminal fluorescein
T1 peptide: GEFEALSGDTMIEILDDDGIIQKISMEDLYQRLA

[3] = molecular target: T1, Fl-Cat^N (fluorescein labeled Cat^N …); experiment: kon2: slope of kobs2 against Cat^C concentration, stopped-flow fluorescence anisotropy, 100 mM NaCl
[4] = molecular target: T1, Fl-Cat^N (fluorescein labeled Cat^N …); experiment: one site binding fit of steady-state fluorescence anisotropy, 500 pM Fl-Cat^N, 500 mM NaCl (fit value below the probe concentration)
[5] = molecular target: T1, Fl-Cat^N (fluorescein labeled Cat^N …); experiment: kon1: slope of kobs1 against Cat^C concentration, stopped-flow fluorescence anisotropy, 100 mM NaCl
[6] = molecular target: T1, Fl-Cat^N (fluorescein labeled Cat^N …); experiment: kon1: slope of kobs1 against Cat^C concentration, stopped-flow fluorescence anisotropy, 500 mM NaCl
[7] = molecular target: T1, Fl-Cat^N (fluorescein labeled Cat^N …); experiment: kon2: slope of kobs2 against Cat^C concentration, stopped-flow fluorescence anisotropy, 500 mM NaCl
[8] = molecular target: T1, Fl-Cat^N (fluorescein labeled Cat^N …); experiment: steady-state fluorescence anisotropy, 500 pM Fl-Cat^N, both low (100 mM NaCl) and high (500 mM NaCl) salt
[9] = molecular target: B1; experiment: NMR: 1H-15N HSQC, heteronuclear NOE, spin-spin relaxation, Cα-Cβ chemical shift perturbation

B1
binding result [1]: binds

B2: SUMO-Flag-Cat^C (other)
chain: MGSSHHHHHHGSGLVPRGSASMSDSEVNQEAKPEVKPEVKPETHINLKVSDGSSEIFFKIKKTTPLRRLMEAFAKRQGKEMDSLRFLYDGIRIQADQTPEDLDMEDNDIIEAHREQIGGDYKDDDDKMFKLNTKNIKVLTPSGFKSFSGIQKVYKPFYHHIIFDDGSEIKCSDNHSFGKDKIKASTIKVGDYLQGKKVLYNEIVEEGIYLYDLLNVGEDNLYYTNGIVSHACESRGK
notes: also called SUMO-Flag-Cats
Kd [2]: 0.0339 nM | kon [3]: 160000 M⁻¹ s⁻¹ | Kd [4]: 0.0804 nM | kon [5]: 2.8e+06 M⁻¹ s⁻¹ | kon [6]: 2.34e+06 M⁻¹ s⁻¹ | kon [7]: 180000 M⁻¹ s⁻¹ | Kd [8]: < 0.5 nM

B3
binding result [9]: binds
